Source: patent US20220177558A1 (INSERM INSTITUT NATIONAL DE LA SANT ET DE LA RECHERCHE M …, published 2022)
Where no end group is shown, it is not given here.

Target: T1, Ac-Met11-Tau peptide: {N-alpha-acetyl}MEDHAGTYGLG (human)
T1 construct: Synthetic peptide coated on the ELISA plate; The C-terminal cysteine was added only for KLH conjugation of the immunogen; also called N-alpha-acetyl-Met11-Tau peptide; AcMet11-peptide
T1 peptide: Ac-MEDHAGTYGLG
Assay: indirect ELISA on coated peptide, positive control

binding result: binds
B1: 2H2D11 antibody (antibody, IgG2a, V domains shown)
VH: EVRLVESGGGLVQPGGSLRLSCATSGFTFTDYYLSWVRQPPGKAFEWLGFIRNRADGYTTNYSASVKGRFTISRDNSQSILYLQMNTLRVEDSATYYCARDNDHYAMDYWGQGTSVTVSS
VL: DVVMTQTPLSLSVTIGQPASISCKSSQSLLYSNGKTYLNWLQQRPGQAPKHLMYQVSKLDPGIPDRFSGSGSETDFILKISRVEAEDLGIYYCLQGTYYPYTFGGGTKLEIK
notes: also called Mab 2H2D11; monoclonal antibody directed against AcMet11-Tau
